B1: EEB1: esterase from Saccharomyces cerevisiae, expressed in BL21 E. coli, used as cell lysate (protein, UniProt Q02891 1-456, looked up)
Medium-chain fatty acid ethyl …: MFRSGYYPTVTPSHWGYNGTVKHVLGEKGTKSLAFRDSKRQIPLHEFVTKHVPTLKDGANFRLNSLLFTGYLQTLYLSAGDFSKKFQVFYGREIIKFSDGGVCTADWVMPEWEQTYSLNAEKASFNEKQFSNDEKATHPKGWPRLHPRTRYLSSEELEKCHSKGYSYPLVVVLHGLAGGSHEPLIRALSEDLSKVGDGKFQVVVLNARGCSRSKVTTRRIFTALHTGDVREFLNHQKALFPQRKIYAVGTSFGAAMLTNYLGEEGDNCPLNAAVALSNPWDFVHTWDKLAHDWWSNHIFSRTLTQFLTRTVKVNMNELQVPENFEVSHKPTVEKPVFYTYTRENLEKAEKFTDILEFDNLFTAPSMGLPDGLTYYRKASSINRLPNIKIPTLIINATDDPVTGENVIPYKQARENPCVLLCETDLGGHLAYLDNESNSWLTKQAAEFLGSFDELVL
modifications: cell lysate
B2: EstA: esterase from Pseudomonas aeruginosa, expressed in BL21 E. coli (protein, UniProt O33407 25-646, looked up)
Esterase EstA: APSPYSTLVVFGDSLSDAGQFPDPAGPAGSTSRFTNRVGPTYQNGSGEIFGPTAPMLLGNQLGIAPGDLAASTSPVNAQQGIADGNNWAVGGYRTDQIYDSITAANGSLIERDNTLLRSRDGYLVDRARQGLGADPNALYYITGGGNDFLQGRILNDVQAQQAAGRLVDSVQALQQAGARYIVVWLLPDLGLTPATFGGPLQPFASQLSGTFNAELTAQLSQAGANVIPLNIPLLLKEGMANPASFGLAADQNLIGTCFSGNGCTMNPTYGINGSTPDPSKLLFNDSVHPTITGQRLIADYTYSLLSAPWELTLLPEMAHGTLRAYQDELRSQWQADWENWQNVGQWRGFVGGGGQRLDFDSQDSAASGDGNGYNLTLGGSYRIDEAWRAGVAAGFYRQKLEAGAKDSDYRMNSYMASAFVQYQENRWWADAALTGGYLDYDDLKRKFALGGGERSEKGDTNGHLWAFSARLGYDIAQQADSPWHLSPFVSADYARVEVDGYSEKGASATALDYDDQKRSSKRLGAGLQGKYAFGSDTQLFAEYAHEREYEDDTQDLTMSLNSLPGNRFTLEGYTPQDHLNRVSLGFSQKLAPELSLRGGYNWRKGEDDTQQSVSLALSLDF

Columns and labels:
[1] = 25° C.; cited from earlier work
[2] = Kinetics reaction assay, pNPA to pNP, Michaelis-Menten model (Example Set 2); format: biochemical; details: for specificity constant, comparison in words: FIG. 15; for vmax × 10^−6 / Km: pNPA to pNP, cell lysate 50 μg/ml protein, optimal temperature and pH of each enzyme; for Km: read-out: km × 10^−6; for kcat: turnover number, all protein detected by Bradford's reagent assumed to be the enzyme
Text: (§1) Esterase activity is used to indirectly measure the esterification activity required for enzymes to produce ethyl lactate. Cleavage of the ester bond in 4-nitrophenyl acetate (pNPA) to form 4-nitrophenol (pNP) and acetic acid is used to determine the esterase activity of the enzymes. The Km and Vmax values, found by applying the Michaelis-Menten kinetics model to experimental data found at optimal pH and temperature conditions, are used to evaluate enzymatic activity. As disclosed herein, hydrolysis of the ester bond in pNPA was used to estimate the esterification activity of the enzymes.
Enzymatic activity can be characterized by calculating kinetic parameters for the enzymes considered. To calculate kinetic parameters for an enzyme, a kinetic model must be applied to the data.
In this form, only the initial reaction rate and substrate concentrations are considered—with the initial reaction rate being the average change in product concentration between the reaction initiation and the first subsequent reading. Plotting the inverse of v0 against the inverse of [S0] results in what is known as a Lineweaver-Burk plot. An example of a Lineweaver-Burk plot is seen in FIG. 2.
A linear regression of the data in such plots follows the linearized Michaelis-Menten equations. The y-intercept of the Lineweaver-Burk plot is the inverse of vmax; the slope multiplied by vmax gives the value of the km parameter. This is summarized in Equation 4: […]
Therefore, the kinetic parameters of an enzyme can be determined through the parameters obtained through a linear regression applied to linearized kinetics data. Once vmax and km are determined, they can be used to calculate the turnover number and the specificity constant. This approach utilizes experiments being performed with varying initial substrate concentrations while holding all other parameters constant.
(§2) This work involved two separate sets of examples (Generally, Example Set 1 and Example Set 2). Example Set 1 set was performed to determine the optimum temperature and pH conditions for each enzyme to catalyze the pNPA reaction. Three temperatures (22, 30, 37° C.) and three pH conditions (pH of 6, 7, 8) were tested. The temperature and pH condition which led to the highest product concentration were selected as the conditions to be used for each enzyme in Example set 2. The second set of examples was a kinetics reaction assay where reaction progress was measured at five time points (0, 15, 30, 60, 120) for six different initial pNPA concentrations (0, 25, 50, 100, 150, 200 μM).
In Example Set 2, a kinetics reaction assay was performed on the enzymes from Table 1. […] That enzymatic activity was tested for at the ideal temperature and pH conditions determined in the optimization experiment.
One deviation from the common protocols for Example Set 2 was that cell pellets had been stored in −80° C. for seven days instead of the usual 24 hours. In addition, the lysing process included more vigorous agitation.
To determine the kinetic activity for each enzyme, substrate concentration was varied and measured at different time points. In addition to testing each enzyme, a wild type E. coli PET control (see Table 1) was run at its optimal conditions. A blank containing pNPA but no enzyme was also included for each of the temperature pH combinations to be tested.
Initial pNPA concentrations were tested at 0, 25, 50, 100, 150, 200 μM. Measurements were made at 0, 15, 30, 60, and 120 minutes.
The phosphate buffer was of pH 6, 7, or 8 as determined to be best from Example Set 1. Stock solutions of pNPA were made in different concentrations such that adding 20 μl to the reaction would result in the corresponding final pNPA concentration (either 25, 50, 100, 150, or 200 μM). Cell lysate was diluted to concentrations of 250 μg/m to allow for uniformity in the volume of lysate added to each reaction. Instead of diluted lysate, each blank received an extra 200 μl of phosphate buffer. […]

[3] = Temperature and pH optimisation, pNPA reaction assay (Example Set 1); format: biochemical; details: tested 22, 30, 37 °C; pH 6, 7, 8; 100 μM pNPA
Text: as §1, §2
Example Set 1 had the objective of determining the optimum temperature and pH conditions at which to run experiments for enzymatic activity characterization. As such, temperature and pH were the only conditions that varied in this experiment. Both were tested at three different levels which were similar to normal cell conditions: 22, 30 and 37° C. for temperature and 6, 7, and 8 for pH.
These were tested for all 8 enzymes from Table 1, as well as the wild type control, and a blank containing no enzyme.
The phosphate buffer was of 6, 7, or 8 pH, respectively. Lysate for each enzyme was diluted down to 250 μg/ml to facilitate ease of addition—each blank received an extra 100 μl of phosphate buffer instead of diluted cell lysate. The enzymatic component was added last and was the catalyst to initialize the reaction. The reactions were performed in three deep 96-well plates each of which was incubated at one of the temperature conditions. Agitation was provided by incubators shaking at 230 RPM.
Readings were made at 30 and 60 minutes following the initialization of the reaction. To make a reading, 200 μl of the reaction volume were transferred from the deep well plates to standard 96-well plates. The pNP product of the pNPA reaction assays is detected through Absorbance at a wavelength of 410 nm.
A curve was generated to convert from absorbances to pNP concentration. The relationship between a colored chemical and its absorbance is usually linear and can be used to convert absorbance values into chemical concentrations. To know how much pNP was being detected through absorbance, it was necessary to create a standard curve to obtain values for the relationship between the concentration of pNP and the absorbance of pNP. Creating a standard curve involved creating samples of different pNP concentrations. For the pNP to give color, it needed to be ionized. Accordingly, pNP was ionized in the presence of NaOH at a concentration of 0.4 g/ml. A standard curve was created by taking the absorbance of pNP at various known concentrations. […] As also seen in FIG. 5, the data (solid line) closely follows a linear pattern over the concentration range being tested for pNP. The R2 value for the linear regression is 0.9939. The formula for converting from absorbance to pNP, derived from that linear regression, is seen in Equation A1: [pNP]=(Abs+0.0244)/25.929 [A1]

[4] = system: E. coli BL21-DE3; assay: In vivo production of esters by engineered E. coli, culture supernatants by GC-MS (Example Set 3); format: cell-based; details: culture supernatant, M9 medium, 1 mM IPTG
Text: E. coli cells were engineered through two step cloning. First, the cells (E. coli BL21-DE3, a commercially available genetic transformation-ready strain) were cloned with esterase or transferase enzymes using pET15b plasmid at NdeI/BamHI locus in the vector.
Specifically, plasmids were constructed (PT7::RBS:Gene*::PT7::RBS:pct::RBS:ldh in pET15b) and cloned in E. coli BL21-DE3 with ethanol producing plasmid (pACYDuet-Zm-pdc-Zm-adh). Cells were cultivated with high-cell density in M9 medium and induced with 1 mM IPTG.
Culture supernatants were analyzed through HPLC (for ethanol and lactate) and GC-MS (for esters). Esterase-A yielded highest ethyl lactate (3.5±1.5 mg/L) and ethyl acetate (16±8 mg/L).
FIGS. 18 and 19 show a GC-MS analysis of culture supernatants (collected after 22 h and 46 h of incubation) of mutants extracted with chloroform.

Row | Molecule | vapor pressure [1] [mm Hg] | specificity constant, comparison in words [2] | vmax × 10^−6 [2] | Km [2] [µM] | kcat [2] [s⁻¹] | Temperature giving 2nd highest conversion of pNPA to pNP [3] [°C] | Temperature giving highest conversion of pNPA to pNP [3] [°C] | pH giving 2nd highest conversion of pNPA to pNP [3] | pH giving highest conversion of pNPA to pNP [3] | ethyl acetate yielded [4] [mg/L] | ethyl lactate yielded [4] [mg/L]
1 | CCOC(=O)C(C)O (stereo not drawn) [ethyl lactate] | 3.75 | – | – | – | – | – | – | – | – | – | –
2 | Cc1ccccc1 [toluene] | 28.4 | – | – | – | – | – | – | – | – | – | –
3 | xylene | 8.84 | – | – | – | – | – | – | – | – | – | –
4 | B1 | – | top performing enzymes | 1.34 ± 0.26 × 10^−6 molL^−1s^−1 | 3.9 ± 0.74 | 1.39 ± 0.26 | 30 | 22 | 8 | 7 | – | –
5 | B2 | – | top performing enzymes | 1.09 ± 0.05 × 10^−6 molL^−1s^−1 | 4.89 ± 1.16 | 1.52 ± 0.36 | 37 | 22 | 8 | 7 | 16 ± 8 | 3.5 ± 1.5
